This note sets out measurements from FireProtDB (doi:10.1006/jmbi.1995.0323).

For the series the following is noted: Streptomyces albogriseolus, Thermal, DSC, reversible: yes, whole UniProt chain shown.

B1: Subtilisin inhibitor wild type, P01006 (protein)
chain: MRNTGAGPSPSVSRPPPSAAPLSGAALAAPGDAPSALYAPSALVLTVGKGVSATTAAPERAVTLTCAPGPSGTHPAAGSACADLAAVGGDLNALTRGEDVMCPMVYDPVLLTVDGVWQGKRVSYERVFSNECEMNAHGSSVFAF
One may read the Tm as the temperature at the midpoint of the melting transition. Consider B1, for which the unfolding free energy runs as follows: (pH 3.2, 53.36 °C, glycine 25 mM) 5.55 kcal/mol; (pH 7, 82.21 °C, Sodium phosphate 25 mM) 6.03 kcal/mol; (pH 9.5, 80.7 °C, glycine 25 mM) 6.04 kcal/mol. In addition, the midpoint of thermal melting (Tm) was determined as 53.4 °C (pH 3.2, glycine 25 mM); 82.2 °C (pH 7, Sodium phosphate 25 mM); 80.7 °C (pH 9.5, glycine 25 mM). In addition, the “unfolding enthalpy (calorimetric)” value worked out at 106 kcal/mol (pH 3.2, glycine 25 mM); 190 kcal/mol (pH 7, Sodium phosphate 25 mM); 186 kcal/mol (pH 9.5, glycine 25 mM).
